Measurements published in US20110229525A1 (VANDERBILT UNIVERSITY, published 2011).

Molecular target: JAK2 (UniProt Q62120 1-1132)
Experiment: cell-based or functional assay

Chain of JAK2 (Q62120 whole entry): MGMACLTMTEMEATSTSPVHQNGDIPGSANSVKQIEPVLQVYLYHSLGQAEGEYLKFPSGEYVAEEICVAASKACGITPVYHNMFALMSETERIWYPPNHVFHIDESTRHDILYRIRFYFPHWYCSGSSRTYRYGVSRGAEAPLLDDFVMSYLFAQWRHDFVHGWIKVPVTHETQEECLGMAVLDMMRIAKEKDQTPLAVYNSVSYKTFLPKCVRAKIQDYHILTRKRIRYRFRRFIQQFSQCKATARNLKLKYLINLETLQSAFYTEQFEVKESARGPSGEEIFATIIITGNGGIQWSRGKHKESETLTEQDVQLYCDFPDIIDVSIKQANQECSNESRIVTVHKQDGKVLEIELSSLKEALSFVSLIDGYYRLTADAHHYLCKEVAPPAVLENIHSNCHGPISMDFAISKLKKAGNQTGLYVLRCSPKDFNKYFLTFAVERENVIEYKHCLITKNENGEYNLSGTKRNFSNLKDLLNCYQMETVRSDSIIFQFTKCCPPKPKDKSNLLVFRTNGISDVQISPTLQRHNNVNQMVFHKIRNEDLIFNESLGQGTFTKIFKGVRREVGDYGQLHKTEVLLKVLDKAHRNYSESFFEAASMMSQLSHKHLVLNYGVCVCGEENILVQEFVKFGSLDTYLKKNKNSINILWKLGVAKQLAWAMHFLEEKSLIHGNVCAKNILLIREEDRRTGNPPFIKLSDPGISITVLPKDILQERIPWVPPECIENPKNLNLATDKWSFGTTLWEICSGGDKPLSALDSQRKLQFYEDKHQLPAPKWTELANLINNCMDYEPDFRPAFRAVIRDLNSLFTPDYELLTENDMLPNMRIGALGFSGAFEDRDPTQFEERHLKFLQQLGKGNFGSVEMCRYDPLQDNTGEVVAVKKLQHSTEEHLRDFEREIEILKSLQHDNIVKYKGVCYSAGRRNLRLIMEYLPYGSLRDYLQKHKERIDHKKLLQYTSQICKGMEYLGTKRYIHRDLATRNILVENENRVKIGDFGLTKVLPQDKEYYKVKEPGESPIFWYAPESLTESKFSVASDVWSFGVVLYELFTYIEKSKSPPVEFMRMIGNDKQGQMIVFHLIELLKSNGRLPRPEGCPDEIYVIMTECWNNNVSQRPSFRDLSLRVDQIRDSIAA

B1: CP-SOCS1 (recombinant cell-penetrating murine SOCS1 with MTM and 6x histidine tag) (other, human;murine, UniProt P08620 7-22, looked up, not shown: small tags and cut ends)
chain: AAVALLPAVLLALLAPMVARNQVAADNAISPAAEPRRRSEPSSSSSSSSPAAPVRPRPCPAVPAPAPGDTHFRTFRSHSDYRRITRTSALLDACGFYWGPLSVHGAHERLRAEPVGTFLVRDSRQRNCFFALSVKMASGPTSIRVHFQAGRFHLDGSRETFDCLFELLEHYVAAPRRMLGAPLRQRRVRPLQELCRQRIVAAVGRENLARIPLNPVLRDYLSSFPFQI
  concentration of CP-SOCS1 that inhibited phosphorylation of STAT1 by 50% (IC50), AMJ2.C8 macrophages stimulated with IFN-g and LPS: < 1.9 mM
